Measured values published in patent publication US20220228157A1, “GENE EDITING IN DIVERSE BACTERIA” (priority 2019, published 2022).

B1: CspRecT: RecT SSAP (UniParc ID: UPI0001837D7F) from a phage of Collinsella stercoris (protein)
chain: MNQIVKFTDDSGLAVQVTPDDVRRYICENATEKEVGLFLQLCQTQRLNPFVKDAYLVKYGGAPASMITSYQVFNRRACRDANYDGIKSGVVVLRDGDVVHKRGAACYKKAGEELIGGWAEVRFKDGRETAYAEVALDDYSTGKSNWAKMPGVMIEKCAKAAAWRLAFPDTFQGMYAAEEMDQAQQPEQVRAQAEQPVDLQPIRELFKPYCEHFGITPAEGMTAVCGAVGAEGMHSMTEQQARRARAWMEEEMAAPAVEAEYEVVDEGEVF
modifications: Collinsella stercoris DSM 13279
B2: Redβ: Redβ SSAP from Enterobacteria phage λ, SEQ ID NO: 474 (protein)
chain: MSTALATLAGKLAERVGMDSVDPQELITTLRQTAFKCDASDAQFIALLIVANQYGLNPWTKEIYAFPDKQNGIVPVVGVDGWSRIINENQQFDGMDFEQDNESCTCRIYRKDRNHPICVTEWMDECRREPFKTREGREITGPWQSHPKRMLRHKAMIQCARLAFGFAGIYDKDEAERIVENTAYTAERQPERDITPVNDETMQEINTLLIALDKTWDDDLLPLCSQIFRRDIRASSELTQAEAVKALGFLKQKATEQKVAA
modifications: Bacteriophage Lambda
B3: PapRecT: SSAP from Pseudomonas aeruginosa, SEQ ID NO: 24, UniParc ID: UPI0001E9E6CB (protein, listed as Pseudomonas aeruginosa)
chain: MGTALTPLLTKFATRYEMGTTPEEVANTLKQTCFKGQVNDSQMVALLIVADQYKLNPFTKELYAFPDKNNGIVPVVGVDGWARIINENPQFDGMEFSMDQQGTECTCKIYRKDRSHAISATEYMAECKRNTQPWQSHPRRMLRHKAMIQCARLAFGFAGIYDQDEAERIVERDVTPAEQYEDVSEAICLIKDSPTMEDLQAAFSNAWKAYKTKGARDQLTAAKDQRKKELLDAPIDVEFEETGDDRAA

Legend:
E. coli [1] = experiment: lacZ recombineering assay (blue/white screening); type: cell-based, Escherichia coli; conditions: for Editing efficiency, 18-bp consecutive mismatches into lacZ / Editing efficiency, 30-bp consecutive mismatches into lacZ: wild type E. coli MG1655
Procedure: Top individual SSAPs (SEQ ID NO: 157 and SEQ ID NO: 24, using Redβ as a control) were expressed in E. coli from a lambda pL promoter. The mutational profile of edits are shown in FIG. 5, including the efficiency of introducing 18-nucleotide (NT) and 30-NT mismatches. Efficiency was measured by disruption of LacZ, plating on X-gal, and counting the number of blue vs. white colonies. In contrast to FIG. 1A, a high over-performance by the SSAP (SEQ ID NO: 157) alone was observed when it was driven off of a more efficient promoter.
To maximize the phylogenetic reach and applicability of these new tools, CspRecT was characterized, alongside Redβ and PapRecT, subcloned into the pORTMAGE plasmid system (FIGS. 10A-10B, Addgene accession: #120418). This plasmid contains a broad-host RSF1010 origin of replication, establishes tight regulation of protein expression with an m-toluic-acid inducible expression system, and disables MMR by transient overexpression of a dominant-negative mutant of E. coli MutL (MutL E32K) (Nyerges et al., Proc. Natl. Acad. Sci. U.S.A. 113, 2502-2507 (2016)), which makes it possible to establish high-efficiency editing without modification of the host genome. […] This pORTMAGE plasmid expressing CspRecT was referred to as pORTMAGE-Ec1 (Addgene).
Oligos were designed to introduce I) premature STOP codons into lacZ for E. coli, K. pneumoniae, and C. freundii, or II) RpsL K43→R; GyrA T83→I; ParC S83→L; RpoB D521→V, or a premature STOP codon into nfxB for P. aeruginosa. Oligo-mediated recombineering was performed as described above on all bacterial strains. After recovery overnight, cells were plated at empirically-determined dilutions to a density of 200-500 colonies per plate. In the case of LacZ screening, plating was assayed on MacConkey agar plates or on X-Gal/IPTG LB^L agar plates in the case of K. pneumoniae. In the case of selective antibiotic screening, cultures were plated onto both selective and non-selective plates. Selective antibiotic concentrations used were the same as those described for the selective testing above, except that in P. aeruginosa 100 μg/ml STR and 1.5 μg/ml CIP were used unless otherwise noted. Variants that were resistant to multiple antibiotics were selected on LB^L agar plates that contained the combination of all corresponding antibiotics. Non-selective plates were antibiotic-free LB^L agar plates. In all cases, allelic-replacement frequencies were calculated by dividing the number of recombinant CFUs by the number of total CFUs. Plasmid maintenance was ensured by supplementing all media and agar plates with either KAN (50 μg/ml) or GEN (20 μg/ml). Minimum Inhibitory Concentration (MIC) Measurement in P. aeruginosa

E. coli [2] = experiment: Allelic recombination frequency, selective vs non-selective plates; type: cell-based, Escherichia coli; conditions: RecT alone
Procedure: Four variants known to enable high genome editing efficiency were selected (Redβ and PapRecT in E. coli, LrpRecT in L. lactis, and MspRecT in M. smegmatis), and tested codon optimized versions of all four in both E. coli (gram-negative), and L. lactis (gram-positive). Genome editing efficiency was measured by introducing oligos encoding known antibiotic resistance mutations, and compared the antibiotic resistant cell counts to the total number of viable cells in the population (FIGS. 17E-17F). […] In L. lactis, LrpRecT was the only functional homolog, and improved oligo incorporation 7,700-fold, while the three other RecT variants were nearly non-functional, improving oligo incorporation less than 7-fold (FIG. 17H). No RecT protein functioned well both in E. coli and L. lactis.
A single colony of E. coli was grown overnight to saturation. In the morning 30 μL of dense culture was inoculated into 3 mL of fresh media and grown for 1 hour. To induce gene expression of the pARC8 vector for recombineering experiments, L-arabinose was added to a final concentration of 0.2% (w/v) and the cells were grown an additional hour. 1 mL of cells were pelleted at 4° C. by centrifugation at 12,000×g for 2.5 minutes and washed twice with 1 mL of ice-cold dH2O. Cells were resuspended in 50 μL ice-cold dH2O containing DNA and transferred to a pre-chilled 0.1 cm electroporation cuvette.
Electrocompetent cells were electroporated with 90-mer oligos at: 1 uM for E. coli, 50 μg for L. lactis, and 10 uM for C. crescentus. 70-mer oligos were used at 1 μg for M. smegmatis. All oligos were obtained from IDT and can be found under “Oligonucleotides for genome editing” in materials and methods. For dsDNA experiments L. lactis was electroporated with 1.5 μg purified linear dsDNA. Cells were electroporated using a Bio-Rad gene pulser set to 25 μF, 200 S2, and 1.8 kV for E. coli, 2.0 kV for L. lactis, and 1.5 kV for C. crescentus and to 1000Ω and 2.5 kV for M. smegmatis. Immediately after electroporation, cells were recovered in fresh media for 3 hours for E. coli, 1 hour for L. lactis, overnight for M. smegmatis and overnight for C. crescentus. L. lactis recovery media was supplemented with MgCl2 and CaCl2) at a concentration of 20 mM and 2 mM, respectively. E. coli recovery media was supplemented with carbenicillin. M. smegmatis recovery media was supplemented with hygromycin. C. crescentus recovery media was supplemented with 0.3% xylose and kanamycin. After recovery, the cells were serial diluted and plated on non-selective vs. selective agar plates to obtain approximately 50-500 CFU/plate. Colonies were counted using a custom script in Fiji, and allelic recombination frequency was calculated by dividing the number of colonies on selective plates, with the number of colonies on non-selective plates.

[3] = wild-type E. coli MG1655, pORTMAGE plasmid

Molecule | Editing efficiency relative to other SSAPs (E. coli [1]; E. coli, lambda pL promoter) | Editing efficiency, 18-bp consecutive mismatches into lacZ (E. coli [1]) | Editing efficiency, 30-bp consecutive mismatches into lacZ (E. coli [1]) | Editing efficiency, average over single-base mismatches (E. coli [1]; [3]) | Editing efficiency, various single-base mismatches (E. coli [1]; [3]) | Improvement of oligo incorporation (E. coli [2])
B1 | about double the efficiency of Redβ or SSAP SEQ ID NO: 24 | 6% | 3% | 43% | 35-51% | 
B2 |  | 3% | 1% |  |  | 1600 fold
B3 |  |  |  |  |  | 2700 fold
